± gives the standard deviation of the averaged measurements.
Tested on: ATP
Assay: switch fluorescence ratio, 500 uM ATP over buffer (Cy3 cluster intensity, sum of 5 cycles each) (fold (ratio)); higher = stronger signal-on switching upon ATP binding; sequences stand for … in TCGTCGGCAGCGTCAGATGTGTATAAGAGACAGTTTTTTTTTTTTTTTTTTTTTTTTT…TC
Conditions: aptamer strand: ATP DNA aptamer (quencher-CACCTGGGGGAGTATTGCGGAGGAAGG + anchor), 100 nM annealed; ATP concentration: 500 uM
In short: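 Switching-strand clusters labelled with Cy3 on a modified Illumina MiSeq flow-cell were annealed to 100 nM quencher-labelled ATP aptamer, imaged in selection buffer, and re-imaged after 15 min with 500 uM ATP at 22 °C. This was done over five cycles with NaOH stripping and re-annealing in between. The fluorescence ratio is summed target-cycle over summed buffer-cycle Cy3 intensity per cluster, averaged per switch-domain sequence, excluding clusters outside 100-1000 RFU.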
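Note: ATP exposure 15 min at 22 °C before imaging.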

Row | Sequence | switch fluorescence ratio
1 | TAATAAGAGA | 0.985 ± 0.015
2 | TAATAAGGAG | 1.004 ± 0.0074
3 | TAATAAGTTT | 1.0262 ± 0.00033
4 | TAATACGTTA | 1.197 ± 0.0026
5 | TAATACTCCT | 2.05 ± 0.073
6 | TAATAGAAGG | 0.977 ± 0.0098
7 | TAATAGCATA | 1.03 ± 0.033
8 | TAATAGGCAG | 1.01 ± 0.029
9 | TAATAGGGGT | 1 ± 0.018
10 | TAATAGGTTT | 1.1 ± 0.22
11 | TAATAGTAAG | 0.996 ± 0.053
12 | TAATAGTGAT | 0.983 ± 0.018
13 | TAATAGTTAC | 1.01 ± 0.041
14 | TAATCAGAGG | 0.994 ± 0.019
15 | TAATCCGCTT | 2.49 ± 0.2
16 | TAATCGATGG | 1.009 ± 0.0012
17 | TAATCGGGGG | 1.04 ± 0.043
18 | TAATCTAGAA | 1.019 ± 0.0017
19 | TAATCTGGCT | 0.993 ± 0.011
20 | TAATGACTCA | 1.034 ± 0.008
21 | TAATGATTTC | 0.992 ± 0.011
22 | TAATGCGATT | 1.04 ± 0.017
23 | TAATGCGCAA | 2.56 ± 1.6
24 | TAATGGACAA | 1.04 ± 0.017
25 | TAATGGCTT | 1.003 ± 0.0022
26 | TAATGGGCGT | 1 ± 0.012

Row | Sequence | switch fluorescence ratio
27 | TAATGGGGTC | 0.9801 ± 0.0029
28 | TAATGGGTGA | 1.03 ± 0.016
29 | TAATGGTTGA | 1.02 ± 0.029
30 | TAATGGTTGG | 0.99283 ± 0.00085
31 | TAATGTGTGG | 0.9885 ± 0.0094
32 | TAATGTTCTT | 1 ± 0.033
33 | TAATTAGGAA | 1.02 ± 0.03
34 | TAATTATGAG | 0.9902 ± 0.0071
35 | TAATTCCGGG | 1.01 ± 0.013
36 | TAATTGGGCT | 0.975 ± 0.016
37 | TAATTGGTGC | 1.049 ± 0.0075
38 | TAATTTAAGG | 0.993 ± 0.039
39 | TAATTTAGTA | 0.9929 ± 0.0073
40 | TAATTTATCA | 1.01 ± 0.035
41 | TAATTTGGAG | 1 ± 0.039
42 | TAATTTGGCT | 1.01 ± 0.035
43 | TAATTTGTTA | 1 ± 0.02
44 | TAATTTTTT | 1 ± 0.038
45 | TACAAAATGG | 0.997 ± 0.012
46 | TACAAATTGA | 1.02 ± 0.021
47 | TACAACGTGG | 0.991 ± 0.012
48 | TACAAGCCTA | 1.011 ± 0.0014
49 | TACAAGGGAT | 0.983 ± 0.013
50 | TACAATGTTT | 1.02 ± 0.059
51 | TACACCGCGG | 1.02 ± 0.027
52 | TACACCTCTA | 1.07 ± 0.028

Row | Sequence | switch fluorescence ratio
53 | TACACGAAAA | 1.13 ± 0.13
54 | TACACTGAAA | 1.08 ± 0.026
55 | TACACTGAAT | 1.01 ± 0.038
56 | TACACTGATA | 1.08 ± 0.043
57 | TACAGAACGC | 1.24 ± 0.24
58 | TACAGAATGG | 0.991 ± 0.014
59 | TACAGCTGGG | 1.01 ± 0.016
60 | TACAGGATGG | 0.9694 ± 0.0057
61 | TACAGGGAGT | 1.06 ± 0.047
62 | TACAGGGCTG | 1.02 ± 0.057
63 | TACAGTGAAA | 1.05 ± 0.057
64 | TACATAAGTT | 1.02 ± 0.0074
65 | TACATAATTA | 0.993 ± 0.021
66 | TACATATGGT | 1.03 ± 0.0018
67 | TACATCGTTT | 1 ± 0.025
68 | TACATGATGG | 1 ± 0.035
69 | TACATGGGCA | 1.01 ± 0.044
70 | TACATGTAGC | 0.986 ± 0.02
71 | TACATTTATA | 1.02 ± 0.019
72 | TACATTTTAC | 1.151 ± 0.0082
73 | TACCAACATC | 1.093 ± 0.0039
74 | TACCAGTCGC | 1.03 ± 0.026
75 | TACCAGTGCG | 1.19 ± 0.15
76 | TACCAGTGCT | 1.075 ± 0.0019
77 | TACCCGGTTT | 0.999 ± 0.026
78 | TACCGGATTT | 0.979 ± 0.0026

Row | Sequence | switch fluorescence ratio
79 | TACCGTTTAT | 1.02 ± 0.036
80 | TACCTAATTA | 1.04 ± 0.046
81 | TACCTACATC | 1.26 ± 0.031
82 | TACCTCATGG | 1.01 ± 0.054
83 | TACCTGGTCG | 1.03 ± 0.041
84 | TACCTTGTCT | 1.04 ± 0.042
85 | TACGAATAGG | 1.017 ± 0.0043
86 | TACGCCTGTG | 1.01 ± 0.037
87 | TACGCTGGGG | 1.02 ± 0.04
88 | TACGCTTAGC | 1.1 ± 0.031
89 | TACGGAAGGA | 1.1 ± 0.021
90 | TACGGGAATT | 1.04 ± 0.023
91 | TACGGGAGCT | 1.05 ± 0.026
92 | TACGGGCCGG | 0.98 ± 0.011
93 | TACGGGGACG | 1.02 ± 0.026
94 | TACGGGGTAG | 0.996 ± 0.028
95 | TACGGGTAGC | 1.04 ± 0.02
96 | TACGGTTTAG | 1 ± 0.048
97 | TACGTAATCT | 1.27 ± 0.014
98 | TACGTAATTT | 1.17 ± 0.018
99 | TACGTATAGG | 1.098 ± 0.0028
100 | TACGTCAGTC | 1.05 ± 0.028
101 | TACGTGCTCC | 1.144 ± 0.0012
102 | TACGTGGGGC | 1.01 ± 0.0079
103 | TACGTGGGGT | 1.01 ± 0.018
104 | TACGTGGGTA | 1 ± 0.0047

Row | Sequence | switch fluorescence ratio
105 | TACGTTATAG | 1.11 ± 0.025
106 | TACGTTGCTT | 0.9959 ± 0.0022
107 | TACGTTGGCA | 1.03 ± 0.035
108 | TACGTTTACG | 1.018 ± 0.0027
109 | TACGTTTCT | 1 ± 0.054
110 | TACGTTTTGT | 1.01 ± 0.011
111 | TACTAGAACT | 1.03 ± 0.035
112 | TACTAGACAG | 1.028 ± 0.0016
113 | TACTATCGTT | 0.994 ± 0.01
114 | TACTATTTTA | 1 ± 0.016
115 | TACTCAGAGG | 1.04 ± 0.021
116 | TACTCTTCAT | 1.12 ± 0.15
117 | TACTCTTTTC | 1.02 ± 0.034
118 | TACTGAAGGG | 1.02 ± 0.031
119 | TACTGAATGT | 1.02 ± 0.013
120 | TACTGATCGT | 1.04 ± 0.024
121 | TACTGCCAGC | 1.08 ± 0.054
122 | TACTGGCTGT | 1.01 ± 0.029
123 | TACTGGGCAC | 3.22 ± 3
124 | TACTGGGGCT | 1.04 ± 0.034
125 | TACTGGTCCG | 1.08 ± 0.074
126 | TACTGTTTTT | 0.9832 ± 0.0056
127 | TACTTATCCT | 1.05 ± 0.042
128 | TACTTCATTT | 1.03 ± 0.041
129 | TACTTCCTCC | 3.8 ± 0.44
130 | TACTTCGAGA | 1.081 ± 0.0099

Row | Sequence | switch fluorescence ratio
131 | TACTTGCGGA | 1.03 ± 0.042
132 | TACTTGGGC | 1.02 ± 0.021
133 | TACTTTAGAC | 1.05 ± 0.011
134 | TACTTTCTGC | 1.02 ± 0.066
135 | TACTTTGCTT | 1.06 ± 0.038
136 | TACTTTTATT | 1.026 ± 0.0066
137 | TACTTTTTGG | 0.9872 ± 0.0092
138 | TAGAAAGGGT | 1.01 ± 0.041
139 | TAGAAAGGTC | 1.073 ± 0.0025
140 | TAGAAAGTTG | 0.953 ± 0.083
141 | TAGAAATTTC | 1.02 ± 0.036
142 | TAGAACAGTT | 0.9982 ± 0.0013
143 | TAGACATGTT | 1 ± 0.13
144 | TAGACGGGGG | 1 ± 0.04
145 | TAGACTTTTT | 0.997 ± 0.03
146 | TAGAGAAAAT | 0.964 ± 0.053
147 | TAGAGAGCCA | 1.03 ± 0.041
148 | TAGAGAGGAG | 1.03 ± 0.021
149 | TAGAGATGGT | 0.962 ± 0.024
150 | TAGAGGCTGC | 0.958 ± 0.042
151 | TAGAGGGGCT | 0.993 ± 0.03
152 | TAGAGGGGTG | 0.991 ± 0.0026
153 | TAGAGGGGTT | 0.985 ± 0.02

Reference: the supplement of paper PMC10126150
